{"source": "patent US20200347138A1", "about": "(INDIAN INSTITUTE OF SCIENCE, published 2020)", "binders": {"B1": {"name": "biotin tagged recombinant human chorionic gonadotropin (ligand)", "chain 1": "not shown", "chain 2": "SKEPLRPRCRPINATLAVEKEGCPVCITVNTTICAGYCPTMTRVLQGVLPALPQVVCNYRDVRFESIRLPGCPRGVNPVVSYAVALSCQCALCRRSTTDCGGPKDHPLTCDDPRFQDSSSSKAPPPSLPSPSRLPGPSDTPILPQ", "modifications": "biotin by Sulfo-NHS-LC Biotin on the hormone, sites not stated", "notes": "also called biotin-hCG"}}, "key": {"human DEC205": {"molecular_target": "T1, human DEC205 (human, UniProt O60449 28-1722)", "T1 construct": "also called hDEC205; CHO/hDEC205", "T1 sequence (O60449 28-1722 K1321N/Y1391H limits assumed)": "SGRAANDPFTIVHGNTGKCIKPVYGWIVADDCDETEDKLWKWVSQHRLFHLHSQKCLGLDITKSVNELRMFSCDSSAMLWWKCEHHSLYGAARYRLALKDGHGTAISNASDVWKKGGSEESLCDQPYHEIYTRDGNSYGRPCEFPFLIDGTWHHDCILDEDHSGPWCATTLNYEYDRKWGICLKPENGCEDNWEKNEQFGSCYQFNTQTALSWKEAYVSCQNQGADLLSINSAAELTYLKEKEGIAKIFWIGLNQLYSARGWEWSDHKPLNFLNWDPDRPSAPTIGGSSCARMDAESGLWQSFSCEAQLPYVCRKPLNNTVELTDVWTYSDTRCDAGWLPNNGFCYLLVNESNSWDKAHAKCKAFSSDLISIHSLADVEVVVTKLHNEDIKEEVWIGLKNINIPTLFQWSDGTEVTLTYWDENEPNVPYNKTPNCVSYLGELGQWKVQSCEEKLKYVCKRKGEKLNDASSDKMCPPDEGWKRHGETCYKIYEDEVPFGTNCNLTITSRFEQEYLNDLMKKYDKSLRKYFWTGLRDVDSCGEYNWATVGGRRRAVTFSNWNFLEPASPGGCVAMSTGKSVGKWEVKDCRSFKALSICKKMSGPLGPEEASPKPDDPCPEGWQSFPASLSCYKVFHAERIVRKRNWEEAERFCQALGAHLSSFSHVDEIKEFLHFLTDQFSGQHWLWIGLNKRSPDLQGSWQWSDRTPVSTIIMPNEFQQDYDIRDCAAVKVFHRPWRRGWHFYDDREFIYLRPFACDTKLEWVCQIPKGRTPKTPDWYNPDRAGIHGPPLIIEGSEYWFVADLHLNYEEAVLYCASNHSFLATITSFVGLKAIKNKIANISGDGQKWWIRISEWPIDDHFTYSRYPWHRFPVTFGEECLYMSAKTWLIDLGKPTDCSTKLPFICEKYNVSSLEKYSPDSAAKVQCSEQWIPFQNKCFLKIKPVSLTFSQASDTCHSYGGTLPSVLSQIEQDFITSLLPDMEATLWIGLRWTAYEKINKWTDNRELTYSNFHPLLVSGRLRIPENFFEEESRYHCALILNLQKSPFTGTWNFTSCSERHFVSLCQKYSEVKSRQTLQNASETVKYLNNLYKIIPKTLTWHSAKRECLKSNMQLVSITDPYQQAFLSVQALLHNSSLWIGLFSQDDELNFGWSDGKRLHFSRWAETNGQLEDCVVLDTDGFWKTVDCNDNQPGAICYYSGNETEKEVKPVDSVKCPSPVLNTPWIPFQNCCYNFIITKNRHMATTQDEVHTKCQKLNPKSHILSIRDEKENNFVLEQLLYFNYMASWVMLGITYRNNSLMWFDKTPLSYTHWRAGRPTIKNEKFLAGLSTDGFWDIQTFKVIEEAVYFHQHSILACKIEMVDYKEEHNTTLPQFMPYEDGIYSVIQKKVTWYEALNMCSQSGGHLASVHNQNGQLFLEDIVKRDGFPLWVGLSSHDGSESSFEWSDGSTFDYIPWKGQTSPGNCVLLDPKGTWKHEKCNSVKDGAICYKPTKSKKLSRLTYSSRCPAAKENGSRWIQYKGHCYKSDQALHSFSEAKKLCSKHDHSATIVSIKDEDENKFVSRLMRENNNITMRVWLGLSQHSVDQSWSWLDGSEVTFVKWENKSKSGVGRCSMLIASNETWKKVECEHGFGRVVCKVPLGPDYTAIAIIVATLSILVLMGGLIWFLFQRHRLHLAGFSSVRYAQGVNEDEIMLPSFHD", "assay": "flow cytometry on CHO/hDEC205 cells, hCG a/s and anti-rabbit IgG-FITC", "experimental": "The ability of ScFv to load antigen onto the human DEC205 was checked by flow cytometry.\nThe complex was incubated with CHO/hDEC205 cells for one hour at 4□ followed by incubation with hCG a/s and subsequently with anti-Rabbit IgG FITC and binding was analyzed by flow cytometry."}, "MAb B52/28": {"molecular_target": "T2, MAb B52/28", "T2 construct": "hCG heterodimer specific monoclonal antibody used in the RIA", "assay": "RIA: unlabelled hormone displaces 125I-hCG from MAb 52/28 [left panel (A]", "experimental": "The antigen-antibody complexes formed were precipitated by adding an appropriate dilution of the normal mouse/rabbit serum, and goat anti-mouse/rabbit IgG followed by addition of 2.5% PEG. The tubes were centrifuged at 4,000 g for 20 minutes at 4 □, the supernatant was discarded and the radioactivity in the pellet was counted in Perkin Elmer γ-counter. The non-specific binding was determined by carrying out binding experiments in the absence of the primary antibodies.\nThe biotin tagged hormonal antigens were analyzed by RIA using hormone specific antibodies (52/28 for hCG and FSH a/s for hFSH) for their ability to retain their immunodominant epitopes. […] The NIH iodination grade hCG and hFSH were used as the standard reference preparations in the RIA and were used for comparing the bioactivity of these hormonal antigens."}}}
{"binder": "B1", "values": [{"measurement": "binding result", "setting": "human DEC205", "value": "no binding"}, {"measurement": "IC50 (read off the curve)", "setting": "MAb B52/28", "value": "~6", "unit": "ng/tube"}]}
